Assay results reported in US20210134388A1, “Hyperstable Constrained Peptides and Their Design” (University of Washington, priority 2016, published 2021).
Positions of bridges follow the written chain, without caps; N, C: chain ends. Non-standard residues stand in square brackets, D forms with d. No end group written: not given here.

How the values were obtained:
Assay type in all cases: physicochemical
[1] = Thermal denaturation monitored by CD spectroscopy; settings: CD wavelength scans, heated to 95° C. and cooled back; 10 mM sodium phosphate buffer (pH 7.0)
Protocol: (§1) The stability of the designs to thermal and chemical denaturation was assessed by CD spectroscopy. Samples were heated to 95° C. (FIG. 2c), or incubated with increasing concentrations of guanidinium hydrochloride (GdnHCl) (FIG. 2d). The contribution of disulfide bonds to protein folding was assessed by incubating samples with a ˜100-fold molar excess of the reductant tris (2-carboxyethyl) phosphine (TCEP).
(§2) Circular dichroism (CD) wavelength and temperature scans were recorded on AVIV model 420 or Jasco J-1500 CD spectrometer. For thermal denaturation, peptides samples were prepared at 0.07-0.2 mg/ml final concentration in 10 mM sodium phosphate buffer (pH 7.0). Wavelength scans from 195 nm to 260 nm were recorded at 25° C., 55° C., 95° C., and again after cooling back to 25° C. For chemical denaturation experiments, samples for each peptide were prepared in the presence of 0 M to 6 M GdnHCl concentrations. The concentration of GdnHCl was measured by refractometry. Peptide samples were also prepared in the presence of 2.5 mM TCEP (TCEP was pre-equilibrated to pH 7.0 prior to addition), and incubated for 3 hours. Peptide concentrations were the same across all samples. Wavelength scans from 190 nm to 260 nm were recorded for each sample in 0.1 cm cuvette.

[2] = Chemical denaturation with guanidinium hydrochloride (GdnHCl) monitored by CD spectroscopy; settings: 0 M to 6 M GdnHCl
Protocol: as §1, §2

[3] = Reduction of disulfide bonds with TCEP, folding monitored by CD spectroscopy; settings: 2.5 mM TCEP (~100-fold molar excess), incubated for 3 hours
Protocol: as §1, §2

[4] = NMR secondary 1Hα chemical shifts at a range of temperatures
Protocol: FIG. 19: Secondary ^1Hα chemical shifts at a range of temperatures for peptide NC_cHLHR_D1 (SEQ ID NO:09). NMR spectra were collected at 25° C. (black bars), 55° C. (blue bars), 75° C. (red bars), and again after cooling to 25° C. (green bars).
Each non-canonical peptide (1 mg) was dissolved in […] of 10% D20/90% H2O or 100% D2O (˜pH 4). NMR spectra were recorded at 298K on a Bruker Avance-600 spectrometer. Two-dimensional NMR experiments included TOCSY with an […] MLEV-17 spin lock, NOESY (200 ms mixing time), ECOSY, as well as natural-abundance ^13C and ^15N HSQC. Solvent suppression was achieved using excitation sculpting. Spectra were processed using Topspin 2.1 then analyzed using CcpNmr Analysis. Chemical shifts were referenced to internal 2,2-dimethyl-2-silapentane-5-sulfonate (DSS).

Substance	stability to thermal denaturation (CD spectra) [1]	stability to chemical denaturation (CD spectra) [2]	folding / secondary structure in the presence of the reductant TCEP (CD spectra) [3]	change of secondary 1Hα chemical shifts (secondary structure) on heating ([4]; NMR spectra at 25° C., 55° C., 75° C.)	aggregation or irreversible conformation change on heating (secondary chemical shifts after cooling) ([4]; NMR, again after cooling to 25° C.)
AEDCERIRKELEKNPNDEIKKKLEKCQA [gHH_44]	resistant to thermal denaturation	–	–	–	–
QCYTFRSECTNKEFTVCRPNPEEVEKEARRTKEEECRK [gEEH_04]	less stable than the others to thermal denaturation	–	–	–	–
CKQRRRYRGSEEECRKYAEELSRRTGCEVEVECET [gEHE_06]	thermally and chemically stable	thermally and chemically stable	remained folded in the presence of TCEP	–	–
HDPEKRKECEKKYTDPKKREECKRKA (cyclo(HDPEKRKECEKKYTDPKKREECKRKA); disulfide 9-22; not fully specified (some residues)) [NC_cHH_D1]	–	do not chemically denature	lost secondary structure	–	–
SQETRKKCTEMKKKFKNCEVRCDESNHCVEVRCSDTKYTLC [gHEEE_02]	resistant to both thermal and chemical denaturation	resistant to both thermal and chemical denaturation	–	–	–
TCEIRVTDTHCKVHCGTQEYKVPPGRTLKVGNCRFTYHDTTCTVECR [gEEEEEE_02]	resistant to both thermal and chemical denaturation	resistant to both thermal and chemical denaturation	–	–	–
NPEDCRQDPEANKSPEECKKLK (cyclo(NPEDCRQDPEANKSPEECKKLK); disulfide 5-18; not fully specified (some residues)) [NC_cHHH_D1]	–	some loss of secondary structure in 6M GdnHCl	lost secondary structure	–	–
NDKCKELKKRYPNCEVRCDpPRYEVHC (NDKCKELKKRYPNCEVRCD[dP]PRYEVHC; disulfide 14-27, 4-18; not fully specified; printed as NDKCKELKKRYPNCEVRCDpPRYEVHC) [NC_HEE_D1]	no loss in secondary structure	does not denature in 6 M GdnHCl	–	–	–
PCECDVNGETYTVSSSEECERLCRKLGVTNCRVHCG [gEEHE_02]	impervious to both thermal and chemical denaturation	impervious to both thermal and chemical denaturation	remained partially folded in the presence of TCEP	–	–
PCEDLKERLKKLGMSEECRQRLEKMCKEGTSEDAERMARNCES [gHHH_06]	partially unfolds upon heating to 95 °C but returns to the folded state upon cooling	–	–	–	–
CRCHITSSCVRVEGDNGEEYRYCSSDEEDLRRFCKEMQKQC [gEEEH_04]	resistant to both thermal and chemical denaturation	resistant to both thermal and chemical denaturation	–	–	–
PVTWCVRIpPTVRCTVRp (cyclo(PVTWCVRI[dP]PTVRCTVR[dP]); disulfide 5-14 (inferred)) [NC_cEE_D1]	–	do not chemically denature	not changed by reduction of the central disulfide bond	–	–
EERRYKRCGQDEERVRRECKERGERQNCQYQIRKEGNCYVCEIRC [gEHEE_06]	thermostable	completely resistant to chemical denaturation	–	–	–
CQTWRrVSPEECRKYKEEYnCVRCTE (CQTWR[dR]VSPEECRKYKEEY[dN]CVRCTE; disulfide 1-21, 12-24) [NC_EHE_D1]	only a small decrease	–	–	–	–
NPELQRKCKELdTRpeaerkcreeSD (cyclo(NPELQRKCKEL[dD]TR[dP][dE][dA][dE][dR][dK][dC][dR][dE][dE]SD); disulfide 8-21 (inferred)) [NC_cHLHR_D1]	no change was observable on heating to 95 °C	–	–	no significant loss of secondary structure resulting from heating	not aggregation-prone or otherwise prone to irreversible conformation changes on heating
